From patent publication US11396522B2, “Bis-acetal-based substrates for imaging exo-glycosidase activity” (ALECTOS THERAPEUTICS INC., priority 2017, dated 2022)

B1: human O-GlcNAcase (hOGA) (Homo sapiens) (protein)
chain: MVQKESQATLEERESELSSNPAASAGASLEPPAAPAPGEDNPAGAGGAAVAGAAGGARRFLCGVVEGFYGRPWVMEQRKELFRRLQKWELNTYLYAPKDDYKHRMFWREMYSVEEAEQLMTLISAAREYEIEFIYAISPGLDITFSNPKEVSTLKRKLDQVSQFGCRSFALLFDDIDHNMCAADKEVFSSFAHAQVSITNEIYQYLGEPETFLFCPTEYCGTFCYPNVSQSPYLRTVGEKLLPGIEVLWTGPKVVSKEIPVESIEEVSKIIKRAPVIWDNIHANDYDQKRLFLGPYKGRSTELIPRLKGVLTNPNCEFEANYVAIHTLATWYKSNMNGVRKDVVMTDSEDSTVSIQIKLENEGSDEDIETDVLYSPQMALKLALTEWLQEFGVPHQYSSRQVAHSGAKASVVDGTPLVAAPSLNATTVVTTVYQEPIMSQGAALSGEPTTLTKEEEKKQPDEEPMDMVVEKQEETDHKNDNQILSEIVEAKMAEELKPMDTDKESIAESKSPEMSMQEDCISDIAPMQTDEQTNKEQFVPGPNEKPLYTAEPVTLEDLQLLADLFYLPYEHGPKGAQMLREFQWLRANSSVVSVNCKGKDSEKIEEWRSRAAKFEEMCGLVMGMFTRLSNCANRTILYDMYSYVWDIKSIMSMVKSFVQWLGCRSHSSAQFLIGDQEPWAFRGGLAGEFQRLLPIDGANDLFFQPPPLTPTSKVYTIRPYFPKDEASVYKICREMYDDGVGLPFQSQPDLIGDKLVGGLLSLSLDYCFVLEDEDGICGYALGTVDVTPFIKKCKISWIPFMQEKYTKPNGDKELSEAEKIMLSFHEEQEVLPETFLANFPSLIKMDIHKKVTDPSVAKSMMACLLSSLKANGSRGAFCEVRPDDKRILEFYSKLGCFEIAKMEGFPKDVVILGRSL
notes: started by addition of hOGA (WT, Full-length, expressed in E. coli. as previously described); made in house; host or cells: E. coli
B2: GBA1 (Homo sapiens) (protein)
chain: ARPCIPKSFGYSSVVCVCNATYCDSFDPPTFPALGTFSRYESTRSGRRMELSMGPIQANHTGTGLLLTLQPEQKFQKVKGFGGAMTDAAALNILALSPPAQNLLLKSYFSEEGIGYNIIRVPMASCDFSIRTYTYADTPDDFQLHNFSLPEEDTKLKIPLIHRALQLAQRPVSLLASPWTSPTWLKTNGAVNGKGSLKGQPGDIYHQTWARYFVKFLDAYAEHKLQFWAVTAENEPSAGLLSGYPFQCLGFTPEHQRDFIARDLGPTLANSTHHNVRLLMLDDQRLLLPHWAKVVLTDPEAAKYVHGIAVHWYLDFLAPAKATLGETHRLFPNTMLFASEACVGSKFWEQSVRLGSWDRGMQYSHSIITNLLYHVVGWTDWNLALNPEGGPNWVRNFVDSPIIVDITKDTFYKQPMFYHLGHFSKFIPEGSQRVGLVASQKNDLDAVALMHPDGSAVVVVLNRSSKDVPLTIKDPAVGFLETISPGYSIHTYLWRRQ
notes: purchased R&D Systems

Tests used:
Assay type in all cases: biochemical, human
[1] = substrate: CC(=O)N[C@H]1[C@H](O[C@@H](OCCOCCn2cc(CNC(=O)c3ccc(/N=N/c4ccc(N(C)C)cc4)cc3)nn2)[C@@](C)(O)C(=O)NCCNc2cccc3c(S(=O)(=O)O)cccc23)O[C@H](CO)[C@@H](O)[C@@H]1O; assay: In vitro kinetic assay with hOGA; details: other: PBS, 37° C., recombinant hOGA
Method: (§1) For some experiments, fluorescence kinetic assays were performed using a Varian Cary Eclipse Spectrophotometer set for 335/493 nm excitation/emission wavelengths. Slits were set at 10 nm and the detector was set on Medium voltage. Enzymatic reactions with human OGA were carried out in PBS at 37° C. and were started by addition of hOGA (WT, Full-length, expressed in E. coli. as previously described) in a total volume of 160 μL (Starna sub-micro Fluorometer cuvette). For measurements of rates using different concentrations of substrates, a hOGA concentration of 100 nM was used. For hOGA titration, 25 μM of Glyco-BABS were added to various concentration of hOGA. […] EDANS standard curve was established using endpoint fluorescence measurements of serial dilutions of EDANS in the relevant buffer using the same instrument parameters. Inner-Filter effect measurements were carried out in cuvette by measuring fluorescence of several concentrations of EDANS in presence of various concentrations of GlcNAc-BABS. Kinetics with Glc-BABS and GBA enzymes (GBA1 and GBA3 purchased from R&D Systems), kinetics with GALC (R&D systems) and Gal-BABS, pH stability, quenching efficiency, some inner-filter effect experiments and lysates experiments were carried out using a Molecular Devices SpectraMax i3× plate reader. […]

[2] = substrate: CC(=O)N[C@H]1[C@H](O[C@@H](OCCOCCn2cc(CNC(=O)c3ccc(/N=N/c4ccc(N(C)C)cc4)cc3)nn2)[C@@](C)(Br)C(=O)NCCNc2cccc3c(S(=O)(=O)O)cccc23)O[C@H](CO)[C@@H](O)[C@@H]1O; assay: In vitro kinetic assay with hOGA; details: other: PBS, 37° C., recombinant hOGA
Method: as §1

[3] = substrate: CN(C)c1ccc(/N=N/c2ccc(C(=O)NCc3cn(CCOCCOC(CC(=O)NCCNc4cccc5c(S(=O)(=O)O)cccc45)O[C@@H]4O[C@H](CO)[C@@H](O)[C@H](O)[C@H]4O)nn3)cc2)cc1; assay: In vitro kinetic assay with GBA1; details: other: 20 nM GBA1, initial rates

Row | Protein | kcat/Km [1] | kcat/Km [2] | kcat/Km [3]
1 | B1 | 519 M⁻¹ s⁻¹ | 263 M⁻¹ s⁻¹ | –
2 | B2 | – | – | 130 M⁻¹ s⁻¹
